Laboratory results published in patent publication US8722043B2, “Induction of p53 expression by neutralization of neuropilin-2 for the treatment of cancers” (Diaclone, priority 2008, dated 2014).

What was measured:
HT29-NRP-2 tumour cells = test: HT29-NRP-2 subcutaneous xenograft, tumour volume; type: in vivo, immunodeficient mice
Experimental: HT29-NRP-2 tumour cells were injected subcutaneously into 20 immunodeficient mice, at a rate of 1×10^6 cells per mouse, in the right flank. 10 days after the injection, the tumours measure approximately 5 mm×5 mm.
In accordance with the protocol described above, group B was inoculated with ITAC-B1 at D0 (12 mg/kg), D3 (6 mg/kg), D7 (12 mg/kg) and D10 (6 mg/kg). Group C was inoculated with 20 mg/kg of 5-FU from D0 to D4 and then with 100 mg/kg at D9. Group D was inoculated with ITAC-B1 at D0 (12 mg/kg), D3 (6 mg/kg), D7 (12 mg/kg) and D10 (6 mg/kg) and with 20 mg/kg of 5-FU from D0 to D4 and 100 mg/kg of 5-FU at D9.
The tumours were measured twice a week, and the volume of the tumours was calculated with the formula: V (mm^3)=d^2×D/2.
FIG. 21 represents the tumour volume as a function of time. Group A (PBS control) is represented by (⋄), group B (mice inoculated with the ITAC-B1 antibody) is represented by (▪), group C (mice inoculated with 5-FU) is represented by (Δ), and group D (mice inoculated both with the ITAC-B1 antibody and with 5-FU) is represented by (x).

[1] = target: T1, human neuropilin-2 at the membrane surface (HT29-NRP-2, P815-NRP-2 cells) (Homo sapiens, UniProt O60462); test: Flow cytometry membrane labelling of cells expressing or not expressing NRP-2; type: binding; conditions: 5 μg/ml antibody, 15 minutes at 4° C.; HT29, HT29-NRP-2, P815, P815-NRP-2 cells
T1 construct: expressed in transfected cells; host or cells: HT29 (human colorectal cancer) and P815 (murine mastocytoma) cells, G418-selected
Experimental: The ITAC-B1 clone was deposited, according to the Treaty of Budapest, with the CNCM (Collection Nationale des Microorganismes [French National Microorganism Collection], Institut Pasteur, 25 rue du Docteur Roux, 75724 Paris Cedex 15, France) on 30 Jul. 2008 under the deposit number CNCM 1-4054. In order to characterize the ITAC-B1 and ITAC-B2 monoclonal antibodies, membrane labelling was carried out by flow cytometry by bringing 200 000 HT29, HT29-NRP-2, P815 or P815-NRP-2 cells into contact with 5 μg/ml of ITAC-B1 or of ITAC-B2, for 15 minutes at 4° C. A goat anti-mouse secondary antibody coupled to FITC was then incubated for 15 minutes in the dark, at 4° C., before reading by flow cytometry. The results of the flow cytometry analysis obtained for ITAC-B1 are represented in FIG. 2.
For each of the panels of FIG. 2, the number of events (number of cells) is indicated on a y-axis, the fluorescence intensity (corresponding to the labelling of the cells with the ITAC-B1 antibody) is represented on the x-axis. Panels A and C (P815+ITAC-B1 and HT29ctrl+ITAC-B1) of FIG. 2 represent the results obtained by flow cytometry with the control cells, while panels B and D (P815-NRP-2+ITAC-B1 and HT29-NRP-2+ITAC-B1) represent the results obtained with cells expressing NRP-2 at their membrane surface. […]

VEGFR1 = test: Western blotting of VEGFR1 phosphorylation; type: cell-based, human; conditions: 20 μg/ml, 24 hours; HT29-NRP-2 and Colo320^siRNA-ctrl cells; treated versus not treated
Experimental: The possible effect of the ITAC-B1 antibody on the degree of phosphorylation of a VEGF receptor (VEGFR1), and also on the phosphorylation of the AKT protein which is activated by means of the VEGF receptors, was studied on HT29-NRP-2 and Colo320^siRNA-ctrl tumour cells.
The cells were cultured for 24 hours in RPMI medium+10% FCS in the presence of the BZ1 control antibody at 20 μg/ml, of ITAC-B1 at 20 μg/ml or of 5-FU at 50 μg/ml. A “nontreated cell” control was added (“medium” control). The cells were then isolated and lysed, and the phosphorylation of VEGFR-1 and of AKT was evaluated by Western blotting on the cell protein extracts, using antibodies directed against nonphosphorylated VEGFR1 (anti-VEGFR1 rabbit polyclonal antibody) or phosphorylated VEGFR1 (anti-phospho-VEGFR1^Tyr1213 rabbit polyclonal antibody, R&D systems) or antibodies directed against nonphosphorylated AKT (rabbit polyclonal antibody C67E7, Cell Signaling technology) or phosphorylated AKT (anti-phospho-AKT^Ser473 rabbit polyclonal antibody DE-9, Cell Signaling technology). The results are represented in FIGS. 16 and 17.

p53 protein = test: Western blotting of p53 expression after antibody treatment; type: cell-based, human; conditions: 20 ng/ml, 48 hours
Experimental: The HT29, HT29-NRP-2, Colo320^siRNA-ctrl tumour cells and Colo320^siRNA-NRP-2 were exposed to 20 ng/ml of ITAC-B1 antibody or of control antibody, and cultured for 48 hours. After lysis of the cell lines, migration of the protein pellets obtained on a 10% polyacrylamide gel (10 μg of protein per well) and then transfer onto a PVDF membrane, the membrane was incubated overnight with the anti-p53 primary antibody (BD Biosciences, mouse anti-human p53) diluted to 1/500. After washing in TBS/0.1% Tween20, the membranes were incubated for 1 hour with an anti-mouse IgG-HRP secondary antibody diluted to 1/6000. The results are represented in FIG. 19.

T1 sequence (O60462 21-931): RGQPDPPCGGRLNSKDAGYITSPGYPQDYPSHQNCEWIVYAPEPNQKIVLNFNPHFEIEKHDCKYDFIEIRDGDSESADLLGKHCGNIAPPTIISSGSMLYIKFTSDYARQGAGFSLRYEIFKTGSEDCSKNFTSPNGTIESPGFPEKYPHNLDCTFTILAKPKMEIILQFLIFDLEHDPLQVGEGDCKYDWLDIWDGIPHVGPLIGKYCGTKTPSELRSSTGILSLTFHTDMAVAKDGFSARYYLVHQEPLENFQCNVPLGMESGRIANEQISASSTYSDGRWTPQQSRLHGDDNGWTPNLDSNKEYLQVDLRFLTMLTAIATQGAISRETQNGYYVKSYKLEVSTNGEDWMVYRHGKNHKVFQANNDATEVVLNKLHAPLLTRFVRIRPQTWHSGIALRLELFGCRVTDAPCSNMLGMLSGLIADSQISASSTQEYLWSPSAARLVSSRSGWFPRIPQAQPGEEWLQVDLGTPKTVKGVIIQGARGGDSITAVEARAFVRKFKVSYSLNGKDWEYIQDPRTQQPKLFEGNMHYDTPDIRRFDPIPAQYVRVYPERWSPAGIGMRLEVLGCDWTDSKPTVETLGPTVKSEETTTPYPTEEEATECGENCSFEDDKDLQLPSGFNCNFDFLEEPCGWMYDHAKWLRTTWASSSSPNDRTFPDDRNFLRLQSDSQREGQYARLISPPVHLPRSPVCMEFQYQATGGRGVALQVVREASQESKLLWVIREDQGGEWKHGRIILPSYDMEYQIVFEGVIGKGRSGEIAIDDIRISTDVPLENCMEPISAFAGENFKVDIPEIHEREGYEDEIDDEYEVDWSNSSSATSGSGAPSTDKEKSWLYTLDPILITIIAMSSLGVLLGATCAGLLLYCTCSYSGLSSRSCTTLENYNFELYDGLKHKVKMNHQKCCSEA

B1: ITAC-B1: anti-human neuropilin-2 murine monoclonal antibody, VH SEQ ID No. 2, VL SEQ ID No. 4, produced by hybridoma CNCM 1-4054 (antibody, listed as Mus musculus, V domains shown)
VH: EVKLQESGAELVKPGASVKLSCTVSGFNIKDTYIHWVIQRPEQGLEWLGRIDPANGNTKYDPKFQGKATITADTSSNTAYLQLSSLTSEDTAVYYCARWAVVGDYWGQGTTLTVSS
VL: YCDHPLYKFLHVSAGDRVTITCKASQSVSDDVAWYQQKPGQSPKLLIYSASNRYTGVPDRFTGSGYGTDFTFTISTVQPEDLAVYFCQQDYSSPTFGSGTKLELK
tumour volume (HT29-NRP-2 tumour cells; group B: ITAC-B1 intraperitoneally D0 12 mg/kg, D3 6 mg/kg, D7 12 mg/kg, D10 6 mg/kg): reduction in tumour volume is observed starting from D14
tumour volume (HT29-NRP-2 tumour cells; group D: ITAC-B1 combined with 5-FU, same regimens): more marked
labelling of cells expressing NRP-2 versus cells not expressing NRP-2 [1]: specifically recognize the neuropilin-2 present at the membrane surface
phosphorylation status of VEGFR (VEGFR1): similar
expression of p53 in lines which express NRP-2 (p53 protein; HT29-NRP-2 and Colo320^siRNA-ctrl): partly restores the expression of p53
expression of p53 in lines which do not express NRP-2 (p53 protein; HT29-ctrl and Colo320^siRNA-NRP-2, with or without antibody): strongly expressed
